Reference: patent publication US20230158180A1 (SLOAN KETTERING INSTITUTE FOR CANCER RESEARCH, published 2023)
Non-standard residues stand in square brackets, D forms with d. Groups on a side chain read outwards from the residue. *: point of attachment. Cy5 silica nanoparticle = Cy5 dye-containing core-shell silica nanoparticle (~7 nm); PEG = not defined here; 124I = [124I]*

Key:
[1] = target: melanocortin-1 receptor (MC1R) on murine B16/F1 and B16F10 melanoma cells (mouse) (UniProt Q01727); experiment: same type of competitive binding assay (given for reference)
[2] = target: melanocortin-1 receptor (MC1R) on human M21 melanoma cells (human) (UniProt Q01726); experiment: flow cytometry dose response, M21 melanoma cells
[3] = target: melanocortin-1 receptor (MC1R) on murine B16/F1 and B16F10 melanoma cells (mouse) (UniProt Q01727); experiment: flow cytometry dose response, B16F10 melanoma cells
[4] = target: melanocortin-1 receptor (MC1R) on murine B16/F1 and B16F10 melanoma cells (mouse) (UniProt Q01727); experiment: competitive binding against ^125I-NDP, cultured B16/F1 melanoma cells
[5] = target: T1, αvβ3 integrin receptor (human, on M21 melanoma cells and HUVEC cells) (human, UniProt P06756 31-1048; P05106 27-788); experiment: Scatchard analysis, gamma counting, M21 cells
T1 construct: whole, on cells; also called integrin αvβ3 receptor
Procedure: To assay particle binding and specificity for M21 cells, 24-well plates were coated with 10 μg/ml collagen type I (BD Biosciences, Bedford, Mass.) in phosphate buffered saline (PBS) and incubated (37° C., 30 min). M21 cells (3.0-4.0×10^5 cells/well) were grown to confluency and washed with RPMI 1640 media/0.5% bovine serum albumin (BSA). ¹²⁴I-cRGD-PEG-nanoparticles (0-4.0 ng/ml) were added to wells and cells incubated (25° C., 4 hours), washed with RPMI 1640 media/0.5% BSA, and dissolved in 0.2 M NaOH. […] Nonspecific binding was determined in the presence of a 1000-fold excess of cRGD (Peptides International, Louisville, Ky.). Scatchard plots of the binding data were generated and analyzed using linear regression analyses (Microsoft Excel 2007) to derive receptor-binding parameters (Kd, Bmax, IC50).
To examine in vitro binding affinity and specificity of ¹²⁴I-cRGDY-PEG-dots and ¹²⁴I-PEGdots to tumor and vascular endothelial surfaces, αᵥβ₃ integrin-overexpressing (M21) and nonexpressing (M21L) melanoma and human umbilical vein endothelial (HUVECs) cell lines were used. Highly specific linear and saturable binding of the cRGDY-PEG-dots was observed over a range of particle concentrations (0 to 8 ng/ml) and incubation times (up to 5-hrs), with maximum differential binding at 4-hr and ˜2.0 ng/ml particle concentration (data not shown) using flow cytometry. […]

[6] = target: T1, αvβ3 integrin receptor (human, on M21 …); experiment: competitive binding, gamma counting, M21 cells
Procedure: Nonspecific binding was determined in the presence of a 1000-fold excess of cRGD (Peptides International, Louisville, Ky.). Scatchard plots of the binding data were generated and analyzed using linear regression analyses (Microsoft Excel 2007) to derive receptor-binding parameters (Kd, Bmax, IC50).
To examine in vitro binding affinity and specificity of ¹²⁴I-cRGDY-PEG-dots and ¹²⁴I-PEGdots to tumor and vascular endothelial surfaces, αᵥβ₃ integrin-overexpressing (M21) and nonexpressing (M21L) melanoma and human umbilical vein endothelial (HUVECs) cell lines were used. Highly specific linear and saturable binding of the cRGDY-PEG-dots was observed over a range of particle concentrations (0 to 8 ng/ml) and incubation times (up to 5-hrs), with maximum differential binding at 4-hr and ˜2.0 ng/ml particle concentration (data not shown) using flow cytometry. Receptor-binding specificity of ¹²⁴I-cRGDY-PEG dots was tested using γ-counting methods after initially incubating M21 cells with excess non-radiolabeled cRGD and then adding various concentrations of the radiolabeled targeted probe (FIG. 8A). […] Based on the Bmax value, the αᵥβ₃ integrin receptor density was estimated to be […] per M21 cell, in reasonable agreement with the previously published estimate of 5.6×10⁴ for this cell line. Cressman, et al., Binding and uptake of RGD-containing ligands to cellular αᵥβ₃ integrins. […]

[7] = target: T1, αvβ3 integrin receptor (human, on M21 …); experiment: cell-based or functional assay

T1 sequence (P06756 31-1048, chain 1 of 2): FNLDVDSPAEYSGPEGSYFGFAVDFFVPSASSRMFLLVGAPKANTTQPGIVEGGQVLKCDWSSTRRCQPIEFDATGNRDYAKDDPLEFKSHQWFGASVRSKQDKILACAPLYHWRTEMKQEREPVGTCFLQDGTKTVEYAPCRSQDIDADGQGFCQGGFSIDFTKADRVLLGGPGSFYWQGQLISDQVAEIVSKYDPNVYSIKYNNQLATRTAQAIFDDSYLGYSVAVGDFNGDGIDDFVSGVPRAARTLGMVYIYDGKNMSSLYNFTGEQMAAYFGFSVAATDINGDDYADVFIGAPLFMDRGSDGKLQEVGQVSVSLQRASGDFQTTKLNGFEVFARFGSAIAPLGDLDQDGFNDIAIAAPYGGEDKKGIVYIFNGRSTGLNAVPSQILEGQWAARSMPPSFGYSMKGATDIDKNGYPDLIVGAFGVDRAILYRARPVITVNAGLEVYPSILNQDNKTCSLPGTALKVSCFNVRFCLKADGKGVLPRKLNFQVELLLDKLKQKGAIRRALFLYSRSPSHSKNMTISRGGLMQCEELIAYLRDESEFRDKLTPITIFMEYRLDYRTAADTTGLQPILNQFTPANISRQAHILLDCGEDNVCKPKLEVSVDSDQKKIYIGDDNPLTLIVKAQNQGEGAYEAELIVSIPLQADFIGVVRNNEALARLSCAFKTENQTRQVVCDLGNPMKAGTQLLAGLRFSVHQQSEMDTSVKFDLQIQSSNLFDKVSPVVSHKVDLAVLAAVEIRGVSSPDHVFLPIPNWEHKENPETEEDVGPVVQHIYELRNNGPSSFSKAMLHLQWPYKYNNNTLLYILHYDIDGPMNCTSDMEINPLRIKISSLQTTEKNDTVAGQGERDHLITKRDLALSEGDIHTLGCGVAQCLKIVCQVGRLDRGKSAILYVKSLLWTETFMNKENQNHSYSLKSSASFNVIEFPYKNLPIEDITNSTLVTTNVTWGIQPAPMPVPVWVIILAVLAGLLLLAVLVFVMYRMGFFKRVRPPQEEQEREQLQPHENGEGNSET
T1 sequence (P05106 27-788, chain 2 of 2): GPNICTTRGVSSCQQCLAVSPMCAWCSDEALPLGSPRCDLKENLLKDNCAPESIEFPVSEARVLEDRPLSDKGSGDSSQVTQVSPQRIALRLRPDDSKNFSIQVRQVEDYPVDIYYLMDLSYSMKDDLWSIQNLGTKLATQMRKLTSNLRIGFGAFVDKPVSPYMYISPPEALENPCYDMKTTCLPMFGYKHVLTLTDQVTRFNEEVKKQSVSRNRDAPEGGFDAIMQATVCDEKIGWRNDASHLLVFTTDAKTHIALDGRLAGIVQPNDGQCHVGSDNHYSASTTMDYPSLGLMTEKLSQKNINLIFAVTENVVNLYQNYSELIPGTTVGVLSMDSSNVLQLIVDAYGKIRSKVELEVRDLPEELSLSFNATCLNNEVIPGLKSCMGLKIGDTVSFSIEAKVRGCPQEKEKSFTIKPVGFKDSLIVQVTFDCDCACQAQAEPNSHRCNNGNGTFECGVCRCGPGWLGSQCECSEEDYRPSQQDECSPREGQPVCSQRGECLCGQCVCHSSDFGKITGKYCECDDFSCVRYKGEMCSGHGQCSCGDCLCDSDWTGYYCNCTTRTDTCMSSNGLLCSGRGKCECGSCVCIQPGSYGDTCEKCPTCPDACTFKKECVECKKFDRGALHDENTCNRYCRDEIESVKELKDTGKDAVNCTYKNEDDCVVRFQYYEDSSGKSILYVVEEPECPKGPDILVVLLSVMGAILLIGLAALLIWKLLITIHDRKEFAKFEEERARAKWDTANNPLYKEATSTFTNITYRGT
Sequence of melanocortin-1 receptor (MC1R) on murine B16/F1 and B16F10 melanoma cells (mouse) (Q01727 whole entry, one chain of several): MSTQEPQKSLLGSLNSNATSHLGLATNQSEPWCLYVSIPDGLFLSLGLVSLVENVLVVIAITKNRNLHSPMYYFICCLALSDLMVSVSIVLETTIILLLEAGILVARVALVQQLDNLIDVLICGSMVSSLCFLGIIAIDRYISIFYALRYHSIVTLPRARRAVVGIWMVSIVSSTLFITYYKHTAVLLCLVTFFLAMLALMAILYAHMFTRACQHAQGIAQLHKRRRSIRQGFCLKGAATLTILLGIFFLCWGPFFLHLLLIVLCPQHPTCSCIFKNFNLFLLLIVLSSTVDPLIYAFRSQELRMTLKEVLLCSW
Sequence of melanocortin-1 receptor (MC1R) on human M21 melanoma cells (human) (Q01726 whole entry): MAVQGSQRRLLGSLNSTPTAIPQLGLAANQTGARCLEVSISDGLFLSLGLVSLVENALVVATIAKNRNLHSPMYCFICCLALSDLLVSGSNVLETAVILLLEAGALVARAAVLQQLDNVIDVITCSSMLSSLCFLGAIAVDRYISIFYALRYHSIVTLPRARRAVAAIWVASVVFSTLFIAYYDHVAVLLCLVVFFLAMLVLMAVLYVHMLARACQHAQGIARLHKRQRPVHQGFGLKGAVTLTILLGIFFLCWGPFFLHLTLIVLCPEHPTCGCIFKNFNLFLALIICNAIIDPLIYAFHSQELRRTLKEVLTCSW

With “DOTA-ReCCMSH (original ReCCMSH targeting molecule) (peptide)” the IC50 [1] was 2.1 nM.

Work on “alpha-MSH-PEG-Cy5-C dots (N-Ac-Cys-(Ahx)2-D-Lys-ReCCMSH peptide-bound nanoparticles)” yielded a saturation concentration [2] of 100 nM, a saturation concentration [3] of 100 nM and an IC50 [4] of 0.66 nM.

B1: ^124I-cRGDY-PEG-dots (radioiodinated, cRGDY peptide-bearing, PEG-coated Cy5 core-shell silica nanoparticles) (other)
peptide: cyclo(RGD[dY](124I)C([maleimide-PEG-Cy5 silica nanoparticle]))
modifications: not fully specified; reading uncertain; also: Cys linked via maleimide to PEG on Cy5 silica nanoparticle
Molecule B1 has a Kd [5] of 0.51 nM and an IC50 [6] of 1.2 nM.

B2: cRGDY-PEG-dots (non-radiolabeled, cRGDY peptide-bearing, PEG-coated Cy5 core-shell silica nanoparticles) (other)
peptide: cyclo(RGD[dY]C([maleimide-PEG-Cy5 silica nanoparticle]))
modifications: not fully specified; reading uncertain; also: Cys linked via maleimide to PEG on Cy5 silica nanoparticle
For B2, the “methylene blue uptake (absorbance) of attached M21 cells without particle pre-incubation relative to particle-exposed cells” value [7] was 2 fold and the “multivalent enhancement factor (ratio of the cRGD peptide to cRGDY-PEG-dot IC50 values), anti-adhesion assay, M21 cells on vitronectin-coated plates” value [7] was greater than 2 fold.
